Measurements from paper PMC7048170.

Target: MUC1 cytoplasmic tail construct (MUC1 with the tandem repeat domain deleted) (human)
Assay: co-IP

fold of co-precipitated protein against the input control [fold]	Substance
6.9	p53 (from UniProt P04637 1-393) (natural protein)
5.6	c-Jun (from UniProt P05412 1-331) (natural protein)
